From patent US10047131B2, “Peptides and combination of peptides for use in immunotherapy against ovarian cancer and other cancers” (immatics biotechnologies GmbH, priority 2015, dated 2018)

Target: HLA-A*02:01 (Homo sapiens, UniProt P04439, D140Y/D185E/D98H/E176V/E277Q/G131W/G231S/I119V/I121R/I166T/I218V/L300P/L318F/N151K/N90K/P208A/P217A/Q86G/Q94H/R138H/R169H/T345S)
Assay: MHC binding assay (UV-ligand exchange, ELISA of exchange yield)
Details: binding to HLA-A*02:01, UV-ligand exchange
From the text: Candidate peptides for T cell based therapies according to the present invention were further tested for their MHC binding capacity (affinity). The individual peptide-MHC complexes were produced by UV-ligand exchange, where a UV-sensitive peptide is cleaved upon UV-irradiation, and exchanged with the peptide of interest as analyzed. Only peptide candidates that can effectively bind and stabilize the peptide-receptive MHC molecules prevent dissociation of the MHC complexes. To determine the yield of the exchange reaction, an ELISA was performed based on the detection of the light chain (p2m) of stabilized MHC complexes. The assay was performed as generally described in Rodenko et al. (Rodenko et al., 2006).
96 well MAXISorp plates (NUNC) were coated over night with 2 μg/ml streptavidin in PBS at room temperature, washed 4× and blocked for 1 h at 37° C. in 2% BSA containing blocking buffer. […] Peptide-MHC monomers of the UV-exchange reaction were diluted 100 fold in blocking buffer. Samples were incubated for 1h at 37° C., washed four times, incubated with 2 μg/ml HRP conjugated anti-β2m for 1h at 37° C., washed again and detected with TMB solution that is stopped with […]. Absorption was measured at 450 nm. Candidate peptides that show a high exchange yield (preferably higher than 50%, most preferred higher than 75%) are generally preferred for a generation and production of antibodies or fragments thereof, and/or T cell receptors or fragments thereof, as they show sufficient avidity to the MHC molecules and prevent dissociation of the MHC complexes.

Peptide exchange (MHC class I binding score, peptide exchange yield)	Substance
“++++” (≥75% = ++++)	53 (KMIETDILQKV; listed as Homo sapiens) [compound 53]
“+++” (≥50 = +++)	54 (SLLEQGKEPWMV; listed as Homo sapiens) [compound 54]
“++++” (≥75% = ++++)	55 (SLLDLETLSL; listed as Homo sapiens) [compound 55]
“++++” (≥75% = ++++)	56 (KLYEGIPVLL; listed as Homo sapiens) [compound 56]
“+++” (≥50 = +++)	57 (TLAELQPPVQL; listed as Homo sapiens) [compound 57]
“+++” (≥50 = +++)	59 (IMEDIILTL; listed as Homo sapiens) [compound 59]
“++++” (≥75% = ++++)	60 (SLTIDGIYYV; listed as Homo sapiens) [compound 60]
“++++” (≥75% = ++++)	61 (FLQGYQLHL; listed as Homo sapiens) [compound 61]
“++++” (≥75% = ++++)	62 (VLLDVSAGQLLM; listed as Homo sapiens) [compound 62]
“++” (≥20% = ++)	63 (YLLPSGGSVTL; listed as Homo sapiens) [compound 63]
“++” (≥20% = ++)	64 (YAAPGGLIGV; listed as Homo sapiens) [compound 64]
“+++” (≥50 = +++)	66 (FLDENIGGVAV; listed as Homo sapiens) [compound 66]
“+++” (≥50 = +++)	67 (TLLAEALVTV; listed as Homo sapiens) [compound 67]
“++++” (≥75% = ++++)	68 (SLMELPRGLFL; listed as Homo sapiens) [compound 68]
“+++” (≥50 = +++)	69 (FQLDPSSGVLVTV; listed as Homo sapiens) [compound 69]
“+++” (≥50 = +++)	70 (GLLDYPVGV; listed as Homo sapiens) [compound 70]
“+++” (≥50 = +++)	71 (GILARIASV; listed as Homo sapiens) [compound 71]
“+++” (≥50 = +++)	72 (SLLELDGINL; listed as Homo sapiens) [compound 72]
“+++” (≥50 = +++)	73 (NIFDLQIYV; listed as Homo sapiens) [compound 73]
“+++” (≥50 = +++)	74 (ALLDPEVLSIFV; listed as Homo sapiens) [compound 74]
“+++” (≥50 = +++)	75 (GLLEVMVNL; listed as Homo sapiens) [compound 75]
“+++” (≥50 = +++)	76 (ILIDSIYKV; listed as Homo sapiens) [compound 76]
“++++” (≥75% = ++++)	77 (ILVEADGAWVV; listed as Homo sapiens) [compound 77]
“+++” (≥50 = +++)	78 (SLFSSLEPQIQPV; listed as Homo sapiens) [compound 78]
“+++” (≥50 = +++)	79 (SLFIGEKAVLL; listed as Homo sapiens) [compound 79]

Peptide exchange (MHC class I binding score, peptide exchange yield)	Substance
“++” (≥20% = ++)	80 (FLYDNLVESL; listed as Homo sapiens) [compound 80]
“++” (≥20% = ++)	81 (FLFSQLQYL; listed as Homo sapiens) [compound 81]
“+++” (≥50 = +++)	82 (FLSSVTYNL; listed as Homo sapiens) [compound 82]
“+++” (≥50 = +++)	83 (ILAPTVMMI; listed as Homo sapiens) [compound 83]
“++” (≥20% = ++)	84 (VTFGEKLLGV; listed as Homo sapiens) [compound 84]
“+++” (≥50 = +++)	85 (KMSELRVTL; listed as Homo sapiens) [compound 85]
“+++” (≥50 = +++)	86 (NLIGKIENV; listed as Homo sapiens) [compound 86]
“++” (≥20% = ++)	87 (ALPEAPAPLLPHIT; listed as Homo sapiens) [compound 87]
“+++” (≥50 = +++)	88 (FLLVGDLMAV; listed as Homo sapiens) [compound 88]
“++++” (≥75% = ++++)	89 (YILPTETIYV; listed as Homo sapiens) [compound 89]
“+++” (≥50 = +++)	90 (TLLQIIETV; listed as Homo sapiens) [compound 90]
“++++” (≥75% = ++++)	91 (IMQDFPAEIFL; listed as Homo sapiens) [compound 91]
“++” (≥20% = ++)	92 (YLIPFTGIVGL; listed as Homo sapiens) [compound 92]
“++” (≥20% = ++)	93 (LLQAIKLYL; listed as Homo sapiens) [compound 93]
“++” (≥20% = ++)	94 (YLIDIKTIAI; listed as Homo sapiens) [compound 94]
“+++” (≥50 = +++)	95 (SVIPQIQKV; listed as Homo sapiens) [compound 95]
“+++” (≥50 = +++)	96 (YIFTDNPAAV; listed as Homo sapiens) [compound 96]
“+++” (≥50 = +++)	97 (SLINGSFLV; listed as Homo sapiens) [compound 97]
“+++” (≥50 = +++)	98 (LIIDQADIYL; listed as Homo sapiens) [compound 98]
“++” (≥20% = ++)	99 (ALVSKGLATV; listed as Homo sapiens) [compound 99]
“++++” (≥75% = ++++)	100 (YLLSTNAQL; listed as Homo sapiens) [compound 100]
“+++” (≥50 = +++)	101 (ILVGGGALATV; listed as Homo sapiens) [compound 101]
“+++” (≥50 = +++)	102 (YLFESEGLVL; listed as Homo sapiens) [compound 102]
“+++” (≥50 = +++)	103 (TLAEEVVAL; listed as Homo sapiens) [compound 103]
“++++” (≥75% = ++++)	104 (STMEQNFLL; listed as Homo sapiens) [compound 104]
